What was measured:
[1] = target: Alexa-488-labelled G-actin-ATP (rabbit) (UniProt P68135); experiment: AUC
[2] = target: α-actin from rabbit skeletal muscle, monomeric (G-actin) (rabbit) (UniProt P68135); experiment: pyrene-actin seeded elongation rates with profilin, fitted with G-actin sequestration by Vn-ExoY
[3] = target: α-actin from rabbit skeletal muscle, monomeric (G-actin) (rabbit) (UniProt P68135); experiment: pyrene-actin seeded elongation rates fitted to a G-actin sequestration model; initial barbed-end (spectrin-actin seeds) and pointed-end (gelsolin-actin seeds) growth rates, 1.5 μM G-actin-ATP-Mg, increasing Vn-ExoY^DM; 28 mM KCl, 2 mM MgCl2, 10 mM Tris-HCl pH 7.5, 2 mM ATP, 1 mM DTT; 25°C; KD from the fit of Eq 1 and 2

For “Trx-Vn-ExoY (Vn-ExoY fused to Thioredoxin) (domain or fragment)”, which Kd [1] is on record?
Its Kd is 11.7 µM.

What about the stoichiometry N [1] of the same substance?
Its stoichiometry N is 1.

How did the Kd [2] turn out when “Vn-ExoY^3412-3873 (wild type) (domain or fragment)” was run?
Its Kd is 12 to 14 µM.

Which Kd [3] does the source give for “Vn-ExoY^DM (Vn-ExoY^412-873 K528M/K535I, inactive double mutant) (domain or fragment)” here?
Its Kd is 21 µM.

What about the stoichiometry N [3] of the same substance?
The stoichiometry N was 1.
